The record followed here is paper PMC5922973, “Topoisomerase VI senses and exploits both DNA crossings and bends to facilitate strand passage” (eLife, 2018).

Changes are numbered by the printed parent chain.

For data set [1], the target named is T1, topo VI KGRR-AAA (Methanosarcina mazei, UniProt Q8PUB7;Q8PUB8 1-369;1-621, K186A;R188A;R189A).
T1 sequence 1: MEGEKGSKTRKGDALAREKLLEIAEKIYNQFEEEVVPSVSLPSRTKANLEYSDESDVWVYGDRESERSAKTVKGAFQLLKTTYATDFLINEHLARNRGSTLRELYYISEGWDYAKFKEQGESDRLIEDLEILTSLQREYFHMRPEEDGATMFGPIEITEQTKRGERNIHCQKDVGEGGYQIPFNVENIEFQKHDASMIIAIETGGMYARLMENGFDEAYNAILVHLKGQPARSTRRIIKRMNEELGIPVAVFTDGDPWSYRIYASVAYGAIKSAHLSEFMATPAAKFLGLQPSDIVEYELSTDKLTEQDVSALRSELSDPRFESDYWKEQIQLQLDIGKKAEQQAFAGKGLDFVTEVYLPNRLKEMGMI
T1 sequence 2: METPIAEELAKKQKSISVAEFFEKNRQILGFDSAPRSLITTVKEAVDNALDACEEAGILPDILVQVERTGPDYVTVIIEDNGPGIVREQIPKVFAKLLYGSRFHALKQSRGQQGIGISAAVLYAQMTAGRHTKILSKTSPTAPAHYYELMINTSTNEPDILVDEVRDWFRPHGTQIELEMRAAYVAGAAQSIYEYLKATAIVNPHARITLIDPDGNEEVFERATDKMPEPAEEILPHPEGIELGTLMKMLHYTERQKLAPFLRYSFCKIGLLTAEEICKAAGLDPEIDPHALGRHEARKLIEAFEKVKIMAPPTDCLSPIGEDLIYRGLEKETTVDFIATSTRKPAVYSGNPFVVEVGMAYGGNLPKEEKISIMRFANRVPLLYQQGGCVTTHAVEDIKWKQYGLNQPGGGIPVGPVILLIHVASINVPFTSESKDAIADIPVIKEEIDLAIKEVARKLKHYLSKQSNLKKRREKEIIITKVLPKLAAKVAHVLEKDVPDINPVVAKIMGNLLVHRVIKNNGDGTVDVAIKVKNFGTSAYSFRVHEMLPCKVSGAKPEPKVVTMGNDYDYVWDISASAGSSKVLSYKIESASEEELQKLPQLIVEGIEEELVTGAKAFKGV
Nature of the data set: fluorescence anisotropy; Fluorescence anisotropy, 20 nM FAM-labelled DNA, topo VI 0 and 3.9-4000 nM, no nucleotide; buffer, salt, pH and temperature not given in supplied text. The settings on record: protein: recombinant; tags: N-terminal His6-TEV on Top6B, removed; chain copies: 2;2; label: 5'-FAM strand 1; blunt. A general note: Fluorescence polarisation rises when a labelled molecule tumbles more slowly, as on binding a larger partner.

The target of another data set is T2, topo VI KGRR-EEE (Methanosarcina mazei, UniProt Q8PUB7;Q8PUB8 1-369;1-621, K186E;R188E;R189E).
T2 sequence 1: T1 sequence 1
T2 sequence 2: T1 sequence 2 with A186E, A188E, A189E
Described as above. The settings on record: protein: recombinant; tags: N-terminal His6-TEV on Top6B, removed; chain copies: 2;2; label: 5'-FAM strand 1; blunt.

The target of data set [2] is T1, topo VI KGRR-AAA. Nature of the data set: fluorescence anisotropy; 10 mM Mg2+; ambiguous, poorly defined dFAmax; FA: 20 nM probe, 50 mM K-glutamate, 20 mM HEPES-KOH pH 7.5, 10 mM MgCl2, 5% glycerol, 1 mM TCEP, 0.1 mg/mL BSA; incubated on ice, read at ambient temperature; competition with 100 nM enzyme. As to conditions: protein: recombinant; tags: N-terminal His6-TEV on Top6B, removed; chain copies: 2;2; label: 5'-FAM on S1; four-way Holliday junction, stacked-X, two GAAA-capped arms.

A further data set has as its target T3, topo VI H2TH-EEE (Methanosarcina mazei, UniProt Q8PUB7;Q8PUB8 1-369;1-621, R263E;K268E;K308E).
T3 sequence 1: T1 sequence 1
T3 sequence 2: T1 sequence 2 with A186K, A188R, A189R, R263E, K268E, K308E
As to the kind of experiment: fluorescence anisotropy; Hill h 1.6; FA: 20 nM probe, 50 mM K-glutamate, 20 mM HEPES-KOH pH 7.5, 10 mM MgCl2, 5% glycerol, 1 mM TCEP, 0.1 mg/mL BSA; incubated on ice, read at ambient temperature; competition with 100 nM enzyme. As to conditions: protein: recombinant; tags: N-terminal His6-TEV on Top6B, removed; chain copies: 2;2; label: 5'-FAM strand 1; blunt.

B1: 30 bp duplex (dsDNA)
DNA 1: CAAAAAGGAAGAGTATGAGTATTCAACATC
DNA 2: GATGTTGAATACTCATACTCTTCCTTTTTG
By Kd is commonly meant the free concentration of one partner at which half of the binding sites on the other are occupied at equilibrium, for simple one-to-one binding. In the case of B1, the Kd with topo VI KGRR-AAA [1] is 65 ± 4 nM; in the data set with topo VI KGRR-EEE it was 82 ± 7 nM.

B2: 60 bp duplex (dsDNA)
DNA 1: CGCTTCAATAATATTGAAAAAGGAAGAGTATGAGTATTCAACATTTCCGTGTCGCCCTTC
DNA 2: GAAGGGCGACACGGAAATGTTGAATACTCATACTCTTCCTTTTTCAATATTATTGAAGCG
For B2, the Kd in the data set with topo VI KGRR-AAA [1] amounted to 99 ± 2 nM; with topo VI KGRR-EEE, 119 ± 3 nM.

B3: 20 bp duplex (dsDNA)
DNA 1: CGGAAGAGTATGAGTATTCG
DNA 2: CGAATACTCATACTCTTCCG
For B3, the Kd was found to be 338 ± 11 nM with topo VI KGRR-AAA [1] and 338 ± 15 nM with topo VI KGRR-EEE.

B4: 16 x 20 bp stacked junction (structured_DNA)
DNA 1: CGAATACTCAGCTCAACCGAAAGGTTGAGCCTTCGCTCGAAAGAGCGAAGTACTCTTCCG
DNA 2: CGGAAGAGTATGAGTATTCG
As to B4, the Kd with topo VI KGRR-AAA [2] is about 758 nM.

B5: 40 bp duplex (dsDNA)
DNA 1: CTATTGAAAAAGGAAGAGTATGAGTATTCAACATTTCCGC
DNA 2: GCGGAAATGTTGAATACTCATACTCTTCCTTTTTCAATAG
In the case of B5, the values for the Kd with topo VI H2TH-EEE, in the data set with topo VI KGRR-AAA [1] and with topo VI KGRR-EEE were 45 ± 2 nM, 67 ± 4 nM and 75 ± 4 nM, respectively.

B6: 70 bp duplex (dsDNA)
DNA 1: CCAAATGCTTCAATAATATTGAAAAAGGAAGAGTATGAGTATTCAACATTTCCGTGTCGCCCTTATTCCC
DNA 2: GGGAATAAGGGCGACACGGAAATGTTGAATACTCATACTCTTCCTTTTTCAATATTATTGAAGCATTTGG
As for B6, the Kd was determined as 124 ± 6 nM with topo VI KGRR-AAA [1] and 193 ± 4 nM in the data set with topo VI KGRR-EEE.
